{
  "source": "IntAct's records for PubMed 22522702",
  "parents": {"B1": {"name": "ADP-ribosylation factor 6 (Mus musculus), P62331 (parent)", "chain": "MGKVLSKIFGNKEMRILMLGLDAAGKTTILYKLKLGQSVTTIPTVGFNVETVTYKNVKFNVWDVGGQDKIRPLWRHYYTGTQGLIFVVDCADRDRIDEARQELHRIINDREMRDAIILIFANKQDLPDAMKPHEIQEKLGLTRIRDRNWYVQPSCATSGDGLYEGLTWLTSNYKS", "partner": "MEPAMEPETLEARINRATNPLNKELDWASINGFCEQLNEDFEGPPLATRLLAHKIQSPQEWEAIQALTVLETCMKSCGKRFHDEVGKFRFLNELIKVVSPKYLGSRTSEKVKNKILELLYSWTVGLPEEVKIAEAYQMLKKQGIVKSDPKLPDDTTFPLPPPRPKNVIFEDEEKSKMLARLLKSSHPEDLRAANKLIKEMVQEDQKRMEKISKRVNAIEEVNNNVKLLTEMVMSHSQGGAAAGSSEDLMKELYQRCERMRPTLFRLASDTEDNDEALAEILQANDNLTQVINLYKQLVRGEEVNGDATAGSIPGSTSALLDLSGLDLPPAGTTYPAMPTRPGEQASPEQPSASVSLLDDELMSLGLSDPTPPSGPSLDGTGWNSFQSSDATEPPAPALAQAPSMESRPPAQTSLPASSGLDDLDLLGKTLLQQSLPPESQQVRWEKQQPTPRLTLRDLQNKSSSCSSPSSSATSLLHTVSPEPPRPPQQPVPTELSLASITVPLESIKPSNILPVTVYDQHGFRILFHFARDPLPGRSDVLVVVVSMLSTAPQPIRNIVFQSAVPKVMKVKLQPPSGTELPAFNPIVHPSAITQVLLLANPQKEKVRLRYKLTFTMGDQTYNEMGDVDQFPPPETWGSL"}, "B2": {"name": "ADP-ribosylation factor 6 (Mus musculus), P62331 (parent)", "chain": "B1 chain", "partner": "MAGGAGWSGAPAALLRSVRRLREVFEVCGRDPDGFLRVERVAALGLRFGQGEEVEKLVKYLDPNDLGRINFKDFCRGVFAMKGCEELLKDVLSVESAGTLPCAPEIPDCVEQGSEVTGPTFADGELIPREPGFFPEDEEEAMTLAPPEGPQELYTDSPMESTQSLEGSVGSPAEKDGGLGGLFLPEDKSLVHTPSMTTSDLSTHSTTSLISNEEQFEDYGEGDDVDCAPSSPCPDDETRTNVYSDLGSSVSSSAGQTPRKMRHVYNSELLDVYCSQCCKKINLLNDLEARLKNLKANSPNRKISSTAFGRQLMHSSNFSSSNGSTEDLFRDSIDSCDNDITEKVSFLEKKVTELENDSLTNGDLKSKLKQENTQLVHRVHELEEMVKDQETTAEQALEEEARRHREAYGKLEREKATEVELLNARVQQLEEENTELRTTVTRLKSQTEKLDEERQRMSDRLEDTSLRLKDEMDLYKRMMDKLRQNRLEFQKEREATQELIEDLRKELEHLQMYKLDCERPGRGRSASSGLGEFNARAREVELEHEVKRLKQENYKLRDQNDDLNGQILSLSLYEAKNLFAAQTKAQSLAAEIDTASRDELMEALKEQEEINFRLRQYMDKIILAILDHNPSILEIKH"}, "B3": {"name": "ADP-ribosylation factor 6 (Mus musculus), P62331 (parent)", "chain": "B1 chain", "partner": "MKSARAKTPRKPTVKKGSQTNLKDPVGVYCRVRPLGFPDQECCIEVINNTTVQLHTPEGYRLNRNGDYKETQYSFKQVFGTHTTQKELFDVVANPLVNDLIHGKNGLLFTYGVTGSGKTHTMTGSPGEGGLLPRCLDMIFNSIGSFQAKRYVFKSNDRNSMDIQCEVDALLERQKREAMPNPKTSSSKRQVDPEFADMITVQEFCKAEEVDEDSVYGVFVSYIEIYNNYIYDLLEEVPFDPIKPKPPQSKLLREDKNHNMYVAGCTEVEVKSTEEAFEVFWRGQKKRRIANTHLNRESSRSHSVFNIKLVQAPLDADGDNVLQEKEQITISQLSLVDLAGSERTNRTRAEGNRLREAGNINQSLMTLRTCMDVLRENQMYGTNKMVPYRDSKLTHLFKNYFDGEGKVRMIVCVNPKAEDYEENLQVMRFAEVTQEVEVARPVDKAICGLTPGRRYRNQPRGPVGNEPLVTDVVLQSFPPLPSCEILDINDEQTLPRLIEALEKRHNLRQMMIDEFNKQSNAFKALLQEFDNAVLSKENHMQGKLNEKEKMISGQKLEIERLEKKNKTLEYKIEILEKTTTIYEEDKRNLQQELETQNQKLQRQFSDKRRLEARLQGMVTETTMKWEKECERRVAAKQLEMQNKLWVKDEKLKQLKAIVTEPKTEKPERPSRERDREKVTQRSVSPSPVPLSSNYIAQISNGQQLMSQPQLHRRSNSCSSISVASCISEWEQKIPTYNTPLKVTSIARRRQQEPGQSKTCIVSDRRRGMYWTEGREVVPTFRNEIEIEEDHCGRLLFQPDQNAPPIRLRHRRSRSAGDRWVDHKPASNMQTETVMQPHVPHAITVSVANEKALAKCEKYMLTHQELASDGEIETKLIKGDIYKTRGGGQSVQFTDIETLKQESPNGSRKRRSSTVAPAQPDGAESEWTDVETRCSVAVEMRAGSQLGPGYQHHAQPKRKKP"}, "B4": {"name": "ADP-ribosylation factor 6 (Mus musculus), P62331 (parent)", "chain": "B1 chain", "partner": "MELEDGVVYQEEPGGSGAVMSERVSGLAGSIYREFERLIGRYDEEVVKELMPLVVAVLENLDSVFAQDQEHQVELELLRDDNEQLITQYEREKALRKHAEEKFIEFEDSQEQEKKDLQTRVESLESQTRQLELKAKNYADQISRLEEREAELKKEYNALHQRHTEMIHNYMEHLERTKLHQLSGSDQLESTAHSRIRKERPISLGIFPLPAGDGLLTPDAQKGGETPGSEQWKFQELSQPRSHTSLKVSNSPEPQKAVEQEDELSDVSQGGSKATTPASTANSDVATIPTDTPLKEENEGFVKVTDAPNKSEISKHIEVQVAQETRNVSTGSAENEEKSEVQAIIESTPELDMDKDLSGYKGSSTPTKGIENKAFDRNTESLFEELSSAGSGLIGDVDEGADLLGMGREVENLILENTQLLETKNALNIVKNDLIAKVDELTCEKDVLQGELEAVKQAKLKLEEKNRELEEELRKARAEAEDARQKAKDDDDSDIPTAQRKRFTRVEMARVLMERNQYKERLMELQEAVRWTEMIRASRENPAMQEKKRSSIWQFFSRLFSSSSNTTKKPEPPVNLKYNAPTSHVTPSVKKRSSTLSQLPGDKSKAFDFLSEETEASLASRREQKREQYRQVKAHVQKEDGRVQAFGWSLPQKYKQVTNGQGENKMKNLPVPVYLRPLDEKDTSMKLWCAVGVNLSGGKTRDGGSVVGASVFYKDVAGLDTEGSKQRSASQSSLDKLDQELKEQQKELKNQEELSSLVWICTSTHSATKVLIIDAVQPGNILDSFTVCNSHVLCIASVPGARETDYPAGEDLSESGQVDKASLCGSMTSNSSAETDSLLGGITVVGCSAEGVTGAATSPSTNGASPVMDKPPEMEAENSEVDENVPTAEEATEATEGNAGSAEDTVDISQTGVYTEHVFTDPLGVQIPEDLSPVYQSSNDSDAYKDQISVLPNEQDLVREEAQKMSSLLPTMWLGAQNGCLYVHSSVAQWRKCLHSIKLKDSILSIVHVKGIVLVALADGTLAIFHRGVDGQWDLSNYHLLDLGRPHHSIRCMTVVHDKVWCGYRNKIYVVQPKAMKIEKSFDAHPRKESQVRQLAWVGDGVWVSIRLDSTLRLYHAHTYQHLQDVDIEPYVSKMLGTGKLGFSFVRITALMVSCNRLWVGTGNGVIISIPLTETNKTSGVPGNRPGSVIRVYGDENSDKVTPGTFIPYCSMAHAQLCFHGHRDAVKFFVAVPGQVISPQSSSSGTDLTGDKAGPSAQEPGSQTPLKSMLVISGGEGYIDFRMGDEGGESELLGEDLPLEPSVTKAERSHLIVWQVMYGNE"}},
  "data": [
    {"variants_of": "B1", "settings": "with gga1_human GGA1, Q9UJY5", "values": [
      {"variant": "Q67L", "effect of a mutation on the interaction": "disrupting interaction"},
      {"variant": "Y77A", "effect of a mutation on the interaction": "disrupting interaction"}
    ]},
    {"variants_of": "B1", "settings": "with gga1_human GGA1, Q9UJY5", "remark": "another data set of the same source", "values": [
      {"variant": "H76A", "effect of a mutation on the interaction": "disrupting interaction"}
    ]},
    {"variants_of": "B2", "settings": "with rfip4_human RAB11FIP4, Q86YS3", "values": [
      {"variant": "Y77A", "effect of a mutation on the interaction": "disrupting interaction"}
    ]},
    {"variants_of": "B2", "settings": "with rfip4_human RAB11FIP4, Q86YS3", "remark": "another data set of the same source", "values": [
      {"variant": "Q67L", "effect of a mutation on the interaction": "disrupting interaction"},
      {"variant": "H76A", "effect of a mutation on the interaction": "disrupting interaction"}
    ]},
    {"variants_of": "B3", "settings": "with kif23_human KIF23, Q02241", "values": [
      {"variant": "T27N", "effect of a mutation on the interaction": "decreasing interaction"}
    ]},
    {"variants_of": "B3", "settings": "with kif23_human KIF23, Q02241", "remark": "another data set of the same source", "values": [
      {"variant": "Q67L", "effect of a mutation on the interaction": "increasing interaction"}
    ]},
    {"variants_of": "B3", "settings": "with kif23_human KIF23, Q02241", "remark": "another data set of the same source", "values": [
      {"variant": "Q67L", "effect of a mutation on the interaction": "disrupting interaction"},
      {"variant": "Y77A", "effect of a mutation on the interaction": "disrupting interaction"}
    ]},
    {"variants_of": "B3", "settings": "with kif23_human KIF23, Q02241", "remark": "another data set of the same source", "values": [
      {"variant": "Q67L", "effect of a mutation on the interaction": "decreasing interaction"},
      {"variant": "H76A", "effect of a mutation on the interaction": "decreasing interaction"}
    ]},
    {"variants_of": "B4", "settings": "with jip4_human SPAG9, O60271", "values": [
      {"variant": "Y77A", "effect of a mutation on the interaction": "disrupting interaction"},
      {"variant": "Q67L", "effect of a mutation on the interaction": "disrupting interaction"}
    ]},
    {"variants_of": "B4", "settings": "with jip4_human SPAG9, O60271", "remark": "another data set of the same source", "values": [
      {"variant": "H76A", "effect of a mutation on the interaction": "disrupting interaction"}
    ]}
  ]
}
